Measured values as given in patent US20220406376A1 (MacroGenics, published 2022).

B1: DART-F (bispecific antibody, human IgG1, kappa, L234A L235A)
heavy: QVQLVQSGAEVKKPGASVKVSCKASGYTFTNYGMNWVRQAPGQGLEWMGWINTNIGEPTYTEEFKGRVTMTRDTSISTAYMELSRLRSDDTAVYYCARDDGYGNRVSYWGQGTLVTVSSASTKGPSVFPLAPSSKSTSGGTAALGCLVKDYFPEPVTVSWNSGALTSGVHTFPAVLQSSGLYSLSSVVTVPSSSLGTQTYICNVNHKPSNTKVDKRVEPKSCDKTHTCPPCPAPEAAGGPSVFLFPPKPKDTLMISRTPEVTCVVVDVSHEDPEVKFNWYVDGVEVHNAKTKPREEQYNSTYRVVSVLTVLHQDWLNGKEYKCKVSNKALPAPIEKTISKAKGQPREPQVYTLPPSREEMTKNQVSLSCAVKGFYPSDIAVEWESNGQPENNYKTTPPVLDSDGSFFLVSKLTVDKSRWQQGNVFSCSVMHEALHNRYTQKSLSLSPGK
light: DIQMTQSPSSLSASVGDRVTITCKASQDISNYLSWFQQKPGKAPKTLIYRANRLQSGVPSRFSGSGSGTDFTLTISSLQPEDFATYYCLQHDEFPWTFGQGTKLEIKRTVAAPSVFIFPPSDEQLKSGTASVVCLLNNFYPREAKVQWKVDNALQSGNSQESVTEQDSKDSTYSLSSTLTLSKADYEKHKVYACEVTHQGLSSPVTKSFNRGEC
chain 1: QVQLVQSGAEVKKPGASVKVSCKASGYTFTNYGMNWVRQAPGQGLEWMGWINTNIGEPTYTEEFKGRVTMTRDTSISTAYMELSRLRSDDTAVYYCARDDGYGNRVSYWGQGTLVTVSSASTKGPSVFPLAPSSKSTSGGTAALGCLVKDYFPEPVTVSWNSGALTSGVHTFPAVLQSSGLYSLSSVVTVPSSSLGTQTYICNVNHKPSNTKVDKRVEPKSCDKTHTCPPCPAPEAAGGPSVFLFPPKPKDTLMISRTPEVTCVVVDVSHEDPEVKFNWYVDGVEVHNAKTKPREEQYNSTYRVVSVLTVLHQDWLNGKEYKCKVSNKALPAPIEKTISKAKGQPREPQVYTLPPSREEMTKNQVSLWCLVKGFYPSDIAVEWESNGQPENNYKTTPPVLDSDGSFFLYSKLTVDKSRWQQGNVFSCSVMHEALHNHYTQKSLSLSPGGGGSGGGSGGGDIQMTQTTSSLSASLGDRVTISCRASQDISNYLNWYQQKPDGTVKLLIYYTSRLHSGVPSRFSGSGSGTDYSLTISNLEQEDIATYFCQQGNTLPYTFGGGTKLEIKGGGSGGGGQVQLQQPGAELVRPGASVKLSCKASGYTFTSYWINWVKQRPGQGLEWIGNIYPSDSYTNYDQKFKDKATLTVDKSSSTAYMQLSSPTSEDSAVYYCTKSGEYGKIGYYAMDYWGQGTSVTVSSGGCGGGEVAALEKEVAALEKEVAALEKEVAALEK
chain 2: DIQMTQTTSSLSASLGDRVTISCRASQDISNYLNWYQQKPDGTVKLLIYYTSRLHSGVPSRFSGSGSGTDYSLTISNLEQEDIATYFCQQGNTLPYTFGGGTKLEIKGGGSGGGGQVQLQQPGAELVRPGASVKLSCKASGYTFTSYWINWVKQRPGQGLEWIGNIYPSDSYTNYDQKFKDKATLTVDKSSSTAYMQLSSPTSEDSAVYYCTKSGEYGKIGYYAMDYWGQGTSVTVSSGGCGGGKVAALKEKVAALKEKVAALKEKVAALKE
B2: DART-4 (bispecific antibody, human IgG1, kappa, L234A L235A)
heavy: QVQLVQSGAEVKKPGASVKVSCKASGYTFTNYGMNWVRQAPGQGLEWMGWINTNIGEPTYTEEFKGRVTMTRDTSISTAYMELSRLRSDDTAVYYCARDDGYGNRVSYWGQGTLVTVSSASTKGPSVFPLAPSSKSTSGGTAALGCLVKDYFPEPVTVSWNSGALTSGVHTFPAVLQSSGLYSLSSVVTVPSSSLGTQTYICNVNHKPSNTKVDKRVEPKSCDKTHTCPPCPAPEAAGGPSVFLFPPKPKDTLMISRTPEVTCVVVDVSHEDPEVKFNWYVDGVEVHNAKTKPREEQYNSTYRVVSVLTVLHQDWLNGKEYKCKVSNKALPAPIEKTISKAKGQPREPQVYTLPPSREEMTKNQVSLSCAVKGFYPSDIAVEWESNGQPENNYKTTPPVLDSDGSFFLVSKLTVDKSRWQQGNVFSCSVMHEALHNRYTQKSLSLSPGK
light: DIQMTQSPSSLSASVGDRVTITCKASQDISNYLSWFQQKPGKAPKTLIYRANRLQSGVPSRFSGSGSGTDFTLTISSLQPEDFATYYCLQHDEFPWTFGQGTKLEIKRTVAAPSVFIFPPSDEQLKSGTASVVCLLNNFYPREAKVQWKVDNALQSGNSQESVTEQDSKDSTYSLSSTLTLSKADYEKHKVYACEVTHQGLSSPVTKSFNRGEC
chain 1: QVQLVQSGAEVKKPGASVKVSCKASGYTFTNYGMNWVRQAPGQGLEWMGWINTNIGEPTYTEEFKGRVTMTRDTSISTAYMELSRLRSDDTAVYYCARDDGYGNRVSYWGQGTLVTVSSASTKGPSVFPLAPSSKSTSGGTAALGCLVKDYFPEPVTVSWNSGALTSGVHTFPAVLQSSGLYSLSSVVTVPSSSLGTQTYICNVNHKPSNTKVDKRVEPKSCDKTHTCPPCPAPEAAGGPSVFLFPPKPKDTLMISRTPEVTCVVVDVSHEDPEVKFNWYVDGVEVHNAKTKPREEQYNSTYRVVSVLTVLHQDWLNGKEYKCKVSNKALPAPIEKTISKAKGQPREPQVYTLPPSREEMTKNQVSLWCLVKGFYPSDIAVEWESNGQPENNYKTTPPVLDSDGSFFLYSKLTVDKSRWQQGNVFSCSVMHEALHNHYTQKSLSLSPGGGGSGGGSGGGEIVLTQSPATLSLSPGERATLSCRASQSVSSYLAWYQQKPGQAPRLLIYDASNRATGIPARFSGSGSGTDFTLTISSLEPEDFAVYYCQQRSNWPPALTFGGGTKVEIKGGGSGGGGQVQLQQWGAGLLKPSETLSLTCAVYGGSFSGYYWSWIRQSPEKGLEWIGEINHGGYVTYNPSLESRVTISVDTSKNQFSLKLSSVTAADTAVYYCARDYGPGNYDWYFDLWGRGTLVTVSSGGCGGGEVAALEKEVAALEKEVAALEKEVAALEK
chain 2: EIVLTQSPATLSLSPGERATLSCRASQSVSSYLAWYQQKPGQAPRLLIYDASNRATGIPARFSGSGSGTDFTLTISSLEPEDFAVYYCQQRSNWPPALTFGGGTKVEIKGGGSGGGGQVQLQQWGAGLLKPSETLSLTCAVYGGSFSGYYWSWIRQSPEKGLEWIGEINHGGYVTYNPSLESRVTISVDTSKNQFSLKLSSVTAADTAVYYCARDYGPGNYDWYFDLWGRGTLVTVSSGGCGGGKVAALKEKVAALKEKVAALKEKVAALKE
B3: DART-5 (bispecific antibody, human IgG1, kappa, L234A L235A)
heavy: QVQLVQSGAEVKKPGASVKVSCKASGYTFTNYGMNWVRQAPGQGLEWMGWINTNIGEPTYTEEFKGRVTMTRDTSISTAYMELSRLRSDDTAVYYCARDDGYGNRVSYWGQGTLVTVSSASTKGPSVFPLAPSSKSTSGGTAALGCLVKDYFPEPVTVSWNSGALTSGVHTFPAVLQSSGLYSLSSVVTVPSSSLGTQTYICNVNHKPSNTKVDKRVEPKSCDKTHTCPPCPAPEAAGGPSVFLFPPKPKDTLMISRTPEVTCVVVDVSHEDPEVKFNWYVDGVEVHNAKTKPREEQYNSTYRVVSVLTVLHQDWLNGKEYKCKVSNKALPAPIEKTISKAKGQPREPQVYTLPPSREEMTKNQVSLSCAVKGFYPSDIAVEWESNGQPENNYKTTPPVLDSDGSFFLVSKLTVDKSRWQQGNVFSCSVMHEALHNRYTQKSLSLSPGK
light: DIQMTQSPSSLSASVGDRVTITCKASQDISNYLSWFQQKPGKAPKTLIYRANRLQSGVPSRFSGSGSGTDFTLTISSLQPEDFATYYCLQHDEFPWTFGQGTKLEIKRTVAAPSVFIFPPSDEQLKSGTASVVCLLNNFYPREAKVQWKVDNALQSGNSQESVTEQDSKDSTYSLSSTLTLSKADYEKHKVYACEVTHQGLSSPVTKSFNRGEC
chain 1: QVQLVQSGAEVKKPGASVKVSCKASGYTFTNYGMNWVRQAPGQGLEWMGWINTNIGEPTYTEEFKGRVTMTRDTSISTAYMELSRLRSDDTAVYYCARDDGYGNRVSYWGQGTLVTVSSASTKGPSVFPLAPSSKSTSGGTAALGCLVKDYFPEPVTVSWNSGALTSGVHTFPAVLQSSGLYSLSSVVTVPSSSLGTQTYICNVNHKPSNTKVDKRVEPKSCDKTHTCPPCPAPEAAGGPSVFLFPPKPKDTLMISRTPEVTCVVVDVSHEDPEVKFNWYVDGVEVHNAKTKPREEQYNSTYRVVSVLTVLHQDWLNGKEYKCKVSNKALPAPIEKTISKAKGQPREPQVYTLPPSREEMTKNQVSLWCLVKGFYPSDIAVEWESNGQPENNYKTTPPVLDSDGSFFLYSKLTVDKSRWQQGNVFSCSVMHEALHNHYTQKSLSLSPGGGGSGGGSGGGSYELTQPPSVSVSPGQTASITCSGDNIGDQYAHWYQQKPGQSPVLVIYQDKNRPSGIPERFSGSNSGNTATLTISGTQAMDEADYYCATYTGFGSLAVFGGGTKLTVLGGGSGGGGEVQLVQSGAEVKKPGESLRISCKGSGYSFSTYWISWVRQMPGKGLEWMGKIYPGDSYTNYSPSFQGQVTISADKSISTAYLQWSSLKASDTAMYYCARGYGIFDYWGQGTLVTVSSGGCGGGEVAALEKEVAALEKEVAALEKEVAALEK
chain 2: SYELTQPPSVSVSPGQTASITCSGDNIGDQYAHWYQQKPGQSPVLVIYQDKNRPSGIPERFSGSNSGNTATLTISGTQAMDEADYYCATYTGFGSLAVFGGGTKLTVLGGGSGGGGEVQLVQSGAEVKKPGESLRISCKGSGYSFSTYWISWVRQMPGKGLEWMGKIYPGDSYTNYSPSFQGQVTISADKSISTAYLQWSSLKASDTAMYYCARGYGIFDYWGQGTLVTVSSGGCGGGKVAALKEKVAALKEKVAALKEKVAALKE
B4: DART-1 (bispecific antibody)
chain 1: not shown
chain 2: EIVLTQSPATLSLSPGERATLSCRASQSVSSYLAWYQQKPGQAPRLLIYDASNRATGIPARFSGSGSGTDFTLTISSLEPEDFAVYYCQQRSNWPPALTFGGGTKVEIKGGGSGGGGQVQLVQSGAEVKKPGASVKVSCKASGYTFTNYGMNWVRQAPGQGLEWMGWINTNIGEPTYTEEFKGRVTMTRDTSISTAYMELSRLRSDDTAVYYCARDDGYGNRVSYWGQGTLVTVSSGGCGGGKVAACKEKVAALKEKVAALKEKVAALKE
B5: DART-2 (bispecific antibody)
chain 1: not shown
chain 2: SYELTQPPSVSVSPGQTASITCSGDNIGDQYAHWYQQKPGQSPVLVIYQDKNRPSGIPERFSGSNSGNTATLTISGTQAMDEADYYCATYTGFGSLAVFGGGTKLTVLGGGSGGGGQVQLVQSGAEVKKPGASVKVSCKASGYTFTNYGMNWVRQAPGQGLEWMGWINTNIGEPTYTEEFKGRVTMTRDTSISTAYMELSRLRSDDTAVYYCARDDGYGNRVSYWGQGTLVTVSSGGCGGGKVAACKEKVAALKEKVAALKEKVAALKE

Assays:
[1] = target: T1, CD137 on the surface of cells (activated human T cells; engineered CHO cells) (human, UniProt Q07011 24-255); experiment: flow cytometry on activated pan T cells gated CD8, anti-hFc APC MFI
T1 construct: whole, on cells; also called human CD137; cell surface expressed CD137
T1 sequence (Q07011 24-255, change not shown): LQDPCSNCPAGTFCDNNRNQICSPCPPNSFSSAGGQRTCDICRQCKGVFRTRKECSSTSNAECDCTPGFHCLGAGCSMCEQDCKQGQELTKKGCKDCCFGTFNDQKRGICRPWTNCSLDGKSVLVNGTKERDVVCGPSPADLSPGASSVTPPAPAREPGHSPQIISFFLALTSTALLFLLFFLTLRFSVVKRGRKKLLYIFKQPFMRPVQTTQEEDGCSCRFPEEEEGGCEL

[2] = target: T2, HER2/neu on the surface of target cells (N87, JIMT-1, MCF-7, MDA-MB231) (UniProt P04626 23-1255, limits assumed); experiment: flow cytometry on N87 gastric cancer cells, anti-hFc APC MFI
T2 construct: whole, on cells

| Binder | EC50 (read off the curve) [1] [nM] | EC50 (read off the curve) [2] [nM] |
| --- | --- | --- |
| B1 | ~0.5 | ~0.5 |
| B2 | ~0.3 | – |
| B3 | – | ~0.5 |
| B4 | ~0.1 | ~0.4 |
| B5 | – | ~0.4 |
